Test in all cases: EMSA
Holding throughout (conditions): 12 mM HEPES-KOH pH 7.6, 10 mM MgCl2, 200 mM NaCl, 4 mM Na2HPO4, 4 mM NaH2PO4, 0.4 mM EDTA, 1 mM DTT, 0.5% BSA, 10% glycerol, 200-fold poly(dI-dC), 1 nM DNA …
(A gel shift assay detects complexes by their altered migration in electrophoresis.)

The test system of series [1] is AraR Y5F (Bacillus subtilis).
Series [2] relates to AraR E30A (Bacillus subtilis).
In series [3] the test system is AraR WT (Bacillus subtilis).
Series [4] concerns the target AraR WT (Bacillus subtilis) (UniProt P96711).
Series [5] concerns the target AraR E30A E30A (Bacillus subtilis) (UniProt P96711).
Series [6] concerns the target AraR Y5F Y5F (Bacillus subtilis) (UniProt P96711).

A word on the Kd: it is the free concentration of one partner at which half of the binding sites on the other are occupied at equilibrium, for simple one-to-one binding.

As to ORA1 G5->T, the Kd was > 200 10^-8 M in series [1], 74.8 10^-8 M in series [2] and 34.5 10^-8 M in series [3].

As for ORA1 T16->G, the results for the Kd in series [1], in series [2] and in series [3] were 35.5 10^-8 M, 34.7 10^-8 M and 11 10^-8 M, respectively.

Take “GATTGACAGTATAATAGTCAATTACTATAATAAAATTGTTCGTACAAATATTTATTTATAGGTTTATTTTCTATCATTAGTACGTATCTTTTGTATTTGAAAGCGTTTTATTTTATGAGAAAGGG (double strand) [araABDLMNPQ-abfA promoter ORA1-ORA2 WT]”: the Kd in series [4] came to 27 nM; in series [5] it was 198 nM; in series [6], 274 nM.

As for “GATTGACAGTATAATAGTCAATTACTATAATAACATTGTTCGTACAAATATTTATTTATAGGTTTATTTTCTATCATTAGTACGTATCTTTTGTATTTGAAAGCGTTTTATTTTATGAGAAAGGG (double strand) [ORA1 A1->C]”, the Kd in series [4] is 74 nM; in series [5], 675 nM; in series [6] it was 331 nM.

For araABDLMNPQ-abfA promoter ORA1-ORA2 WT, the results for the Kd in series [1], in series [2] and in series [3] were 27.4 10^-8 M, 19.8 10^-8 M and 2.7 10^-8 M, respectively.

In the case of “GATTGACAGTATAATAGTCAATTACTATAATAAAATTGGTCGTACAAATATTTATTTATAGGTTTATTTTCTATCATTAGTACGTATCTTTTGTATTTGAAAGCGTTTTATTTTATGAGAAAGGG (double strand) [ORA1 T6->G]”, the Kd in series [4] was determined as 56 nM; in series [5], 254 nM; in series [6] it was 476 nM.

For “GATTGACAGTATAATAGTCAATTACTATAATAAAATTGTTCGTACAAAGATTTATTTATAGGTTTATTTTCTATCATTAGTACGTATCTTTTGTATTTGAAAGCGTTTTATTTTATGAGAAAGGG (double strand) [ORA1 T16->G]”, the Kd in series [4] is 110 nM; in series [5], 347 nM; in series [6], 355 nM.

On to ORA1 T6->G, for which the Kd in series [1] was 47.6 10^-8 M; in series [2], 25.4 10^-8 M; in series [3] it was 5.6 10^-8 M.

“GATTGACAGTATAATAGTCAATTACTATAATAAAATTTTTCGTACAAATATTTATTTATAGGTTTATTTTCTATCATTAGTACGTATCTTTTGTATTTGAAAGCGTTTTATTTTATGAGAAAGGG (double strand) [ORA1 G5->T]”: the figures for the Kd in series [4] and in series [5] were 345 nM and 748 nM, respectively.

For ORA1 A1->C, the figures for the Kd in series [1], in series [2] and in series [3] were 33.1 10^-8 M, 67.5 10^-8 M and 7.4 10^-8 M, respectively.

For the origin of these results see article PMC4218819.
